B1: GST-tagged ELMO1-RBD (residues 1-113), wild-type [human] / RhoG (residues 1-184) [human] (parent complex)
chain 1: MPPPADIVKVAIEWPGAYPKLMEIDQKKPLSAIIKEVCDGWSLANHEYFALQHADSSNFYITEKNRNEIKNGTILRLTTSPAQNAQQLHERIQSSSMDAKLEALKDLASLSRD
chain 2: not shown

Variants of: B1
Experiment: SPR; read at the highest RhoG concentration, about 35 µM; RhoG in the active GTPγS-bound form; read off a plot

Variant | response
chain 1 Y18A | ~59%
chain 1 L21A | ~18%
chain 1 K9A | ~0%
chain 1 E13A | ~46%
chain 1 N58A | ~78%
chain 1 K20E | ~64%

Variants of: B1
Experiment: SPR; RhoG in the active GTPγS-bound form; n = 3 independent experiments

Variant | Kd
chain 1 L21A | 163 µM
chain 1 E13A | 44.3 µM
chain 1 N58A | 10 µM

— paper PMC10023680 (2023)
